Measurements from patent EP2033655B1.
Ends that are not written are not given here.

Molecular target: Cell-surface expressed nucleolin (on THP-1 monocytic cells; on HeLa P4 cells) (human), P19338
Test: cell-based or functional assay

Chain of Cell-surface expressed nucleolin (on THP-1 monocytic cells; on HeLa P4 cells) (human), P19338 (P19338 2-710 limits assumed): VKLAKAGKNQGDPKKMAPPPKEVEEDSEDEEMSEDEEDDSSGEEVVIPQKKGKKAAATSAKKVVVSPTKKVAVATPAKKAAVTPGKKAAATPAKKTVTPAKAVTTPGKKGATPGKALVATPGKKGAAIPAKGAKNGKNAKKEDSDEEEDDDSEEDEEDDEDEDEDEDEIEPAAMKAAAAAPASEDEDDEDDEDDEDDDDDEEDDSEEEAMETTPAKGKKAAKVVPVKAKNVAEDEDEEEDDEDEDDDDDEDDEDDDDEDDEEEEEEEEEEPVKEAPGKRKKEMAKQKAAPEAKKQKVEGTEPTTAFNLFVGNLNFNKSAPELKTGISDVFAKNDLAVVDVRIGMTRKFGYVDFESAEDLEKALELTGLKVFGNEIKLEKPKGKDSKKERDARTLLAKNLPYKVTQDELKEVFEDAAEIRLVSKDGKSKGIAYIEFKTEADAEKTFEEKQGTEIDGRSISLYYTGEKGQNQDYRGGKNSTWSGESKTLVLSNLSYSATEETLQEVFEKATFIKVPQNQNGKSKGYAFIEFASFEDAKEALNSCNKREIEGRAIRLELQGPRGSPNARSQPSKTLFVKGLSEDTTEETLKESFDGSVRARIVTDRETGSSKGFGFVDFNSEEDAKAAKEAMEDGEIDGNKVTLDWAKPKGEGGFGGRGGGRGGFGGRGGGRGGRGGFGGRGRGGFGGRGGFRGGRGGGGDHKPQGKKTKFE

B1: HB-19 pseudopeptide, 5[Lys (CH2N)Pro-Arg]-template-assembled synthetic peptide (peptide)
chain: KKKGPKEK
peptide: Lys-Pro-Arg
modifications: also: Lys (CH2N)Pro reduced bond, five Lys-Pro-Arg units assembled on template
  level of infection of THP-1 cells, HB-19 together with anti-CR3 Mab: 95%
